The target of experiment [1] is T1, anti-PDL1 antibody C5H9v2.
T1 construct: IgG; also called anti-PDL1 parental antibody C5H9v2
In words: binding of antibody to peptide-displaying clones.

Experiment [2] deals with Fab of anti-PDL1 antibody C5H9v2. Kind of experiment: binding of Fab to peptide-displaying clones.
Experiment [3] concerns the target T2, human B7-1-Fc (R&D Systems) (human, UniProt P33681 35-242).
T2 construct: not shown: Fc part of the bought fusion protein; not described
T2 sequence (looked up): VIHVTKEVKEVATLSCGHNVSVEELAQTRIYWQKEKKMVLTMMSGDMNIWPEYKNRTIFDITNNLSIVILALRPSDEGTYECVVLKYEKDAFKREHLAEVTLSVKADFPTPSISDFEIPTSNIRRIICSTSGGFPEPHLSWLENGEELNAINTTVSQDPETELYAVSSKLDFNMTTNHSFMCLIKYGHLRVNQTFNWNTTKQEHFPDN
In words: Fab-phage ELISA, antigen adsorbed. An excerpt:
Forty seven (47) individual isolates were chosen from the final pool. […] Briefly, the antigens were adsorbed to the wells of a 96-well ELISA plate, each ligand on a separate plate. Phage were applied to correlative wells on each plate and allowed to bind. Bound phage were visualized with an anti-M13-HRP conjugate and developed with the chromogenic substrate TMB. Based on the results of the ELISA and DNA sequence, 6 unique clones with matured heavy variable CDR3 domains and 10 heavy variable CDR2 domains were chosen for further study. […] Table 4 lists the heavy variable domains encoded by the clones and SEQ ID NOs for the nucleic acid sequences and amino acid sequences of their respective heavy chains.
A general note: In an ELISA, binding on a coated surface is turned into a signal by an enzyme label.

Here are results for 33 molecules from patent US20190382493A1 (CYTOMX THERAPEUTICS, published 2019).

B1: masking moiety PL08 (peptide)
peptide: DGPRCFVSGECSPIG
Consider B1, for which the binding result in experiment [1] and in experiment [2] was “binds” throughout.

B2: masking moiety PL06 (peptide)
peptide: ILYCDSWGAGCLTRP
For the molecule B2, the binding result in experiment [1] and in experiment [2] was “binds” in each case.

B3: masking moiety PL15 (peptide)
peptide: IFCHMGVVVPQCANY
Turning to B3, the binding result in experiment [1] and in experiment [2] was “binds” throughout.

B4: masking moiety PL01 (peptide)
peptide: YCEVSELFVLPWCMG
For the molecule B4, the binding result in experiment [1] and in experiment [2] was “binds” each time.

B5: masking moiety PL02 (peptide)
peptide: SCLMHPHYAHDYCYV
Turning to B5, the binding result in experiment [1] and in experiment [2] was “binds” in each case.

B6: masking moiety PL05 (peptide)
peptide: FGPRCGEASTCVPYE
Regarding B6, the binding result in experiment [1] and in experiment [2] was “binds” throughout.

B7: masking moiety PL03 (peptide)
peptide: LCEVLMLLQHPWCMG
With B7, the binding result in experiment [1] and in experiment [2] was “binds” in each case.

B8: masking moiety PL12 (peptide)
peptide: VCYYMDWLGRNWCSS
With B8, the binding result in experiment [1] and in experiment [2] was “binds” throughout.

B9: masking moiety PL04 (peptide)
peptide: IACRHFMEQLPFCHH
In the case of B9, the binding result in experiment [1] and in experiment [2] was “binds” throughout.

B10: masking moiety PL13 (peptide)
peptide: LCDLFKLREFPYCMG
On to B10, for which the binding result in experiment [1] and in experiment [2] was “binds” each time.

B11: masking moiety PL11 (peptide)
peptide: PCYWHPFFAYRYCNT
B11: the binding result in experiment [1] and in experiment [2] was “binds” throughout.

B12: masking moiety PL09 (peptide)
peptide: LCYKLDYDDRSYCHI
As to B12, the binding result in experiment [1] and in experiment [2] was “binds” in each case.

B13: masking moiety PL10 (peptide)
peptide: PCHPHPYDARPYCNV
B13: the binding result in experiment [1] and in experiment [2] was “binds” each time.

B14: masking moiety PL17 (peptide)
peptide: PCHPAPYDARPYCNV
notes: differs from PL10 by one alanine
With B14, the binding result in experiment [1] and in experiment [2] was “binds” in each case.

B15: masking moiety PL22 (peptide)
peptide: PCHPHPYDARPACNV
notes: as for B14
For B15, the binding result in experiment [1] and in experiment [2] was “binds” throughout.

B16: masking moiety PL25 (peptide)
peptide: PCHPHPYDARAYCNV
notes: as for B14
In the case of B16, the binding result in experiment [1] and in experiment [2] was “binds” in each case.

B17: masking moiety PL16 (peptide)
peptide: ACHPHPYDARPYCNV
notes: as for B14
As to B17, the binding result in experiment [1] and in experiment [2] was “binds” throughout.

B18: masking moiety PL24 (peptide)
peptide: PCHAHPYDARPYCNV
notes: as for B14
Turning to B18, the binding result in experiment [1] and in experiment [2] was “binds” in each case.

B19: masking moiety PL23 (peptide)
peptide: PCHPHPYDARPYCAV
notes: as for B14
With B19, the binding result in experiment [1] and in experiment [2] was “binds” in each case.

B20: masking moiety PL20 (peptide)
peptide: PCHPHPYAARPYCNV
notes: as for B14
On to B20, for which the binding result in experiment [1] and in experiment [2] was “binds” each time.

B21: masking moiety PL19 (peptide)
peptide: PCHPHPADARPYCNV
notes: as for B14
On to B21, for which the binding result in experiment [1] and in experiment [2] was “binds” throughout.

B22: masking moiety PL21 (peptide)
peptide: PCHPHPYDAAPYCNV
notes: as for B14
For B22, the binding result in experiment [1] and in experiment [2] was “binds” throughout.

B23: masking moiety PL18 (peptide)
peptide: PCHPHAYDARPYCNV
notes: as for B14
For the molecule B23, the binding result in experiment [1] and in experiment [2] was “binds” throughout.

B24: masking moiety PL14 (peptide)
peptide: YLPCHFVPIGACNNK
On to B24, for which the binding result in experiment [1] and in experiment [2] was “binds” throughout.

B25: masking moiety PL07 (peptide)
peptide: GIALCPSHFCQLPQT
With B25, the binding result in experiment [1] and in experiment [2] was “binds” in each case.

B26: PDL1 A05 Fab-phage (Fab, V domains shown)
VH: EVQLLESGGGLVQPGGSLRLSCAASGFTFSSYAMSWVRQAPGKGLEWVSSIWKQGIVTVYDSVKGRFTISRDNSKNTLYLQMNSLRAEDTAVYYCAKSSAGFDYWGQGTLVTV
VL: DIQMTQSPSSLSASVGDRVTITCRASQSISSYLNWYQQKPGKAPKLLIYYASTLQSGVPSRFSGSGSGTDFTLTISSLQPEDFATYYCQQDNGYPSTFGQGTKVEIKR
On to B26, for which the binding result in experiment [3] is reported as “no binding”.

B27: PDL1 G12 Fab-phage (Fab, V domains shown)
VH: EVQLLESGGGLVQPGGSLRLSCAASGFTFSSYAMSWVRQAPGKGLEWVSSIWYQGLVTVYDSVKGRFTISRDNSKNTLYLQMNSLRAEDTAVYYCAKSSAGFDYWGQGTLVTVSS
VL: DIQMTQSPSSLSASVGDRVTITCRASQSISSYLNWYQQKPGKAPKLLIYYASTLQSGVPSRFSGSGSGTDFTLTISSLQPEDFATYYCQQDNGYPSTFGQGTKVEIKR
B27: the binding result in experiment [3] was “no binding”.

B28: PDL1 C10 Fab-phage (Fab, V domains shown)
VH: EVQLLESGGGLVQPGGSLRLSCAASGFTFSSYAMSWVRQAPGKGLEWVSDIWKQGMVTVYDSVKGRFTISRDNSKNTLYLQMNSLRAEDTAVYYCAKSSAGFDYWGQGTLVTVSS
VL: DIQMTQSPSSLSASVGDRVTITCRASQSISSYLNWYQQKPGKAPKLLIYYASTLQSGVPSRFSGSGSGTDFTLTISSLQPEDFATYYCQQDNGYPSTFGQGTKVEIKR
Take B28: in experiment [3], the binding result was “no binding”.

B29: PDL1 D08 Fab-phage (Fab, V domains shown)
VH: EVQLLESGGGLVQPGGSLRLSCAASGFTFSSYAMSWVRQAPGKGLEWVSSIWRQGLATAYDSVKGRFTISRDNSKNTLYLQMNSLRAEDTAVYYCAKSSAGFDYWGQGTLVTVSS
VL: DIQMTQSPSSLSASVGDRVTITCRASQSISSYLNWYQQKPGKAPKLLIYYASTLQSGVPSRFSGSGSGTDFTLTISSLQPEDFATYYCQQDNGYPSTFGQGTKVEIKR
Consider B29, for which the binding result in experiment [3] is “no binding”.

B30: PDL1 D01 Fab-phage (Fab, V domains shown)
VH: EVQLLESGGGLVQPGGSLRLSCAASGFTFSSYAMSWVRQAPGKGLEWVSSIWKQGIVTVYDSVKGRFTISRDNSKNTLYLQMNSLRAEDTAVYYCAKSSAGFDYWGQGTLVTVSS
VL: DIQMTQSPSSLSASVGDRVTITCRASQSISSYLNWYQQKPGKAPKLLIYYASTLQSGVPSRFSGSGSGTDFTLTISSLQPEDFATYYCQQDNGYPSTFGQGTKVEIKR
Turning to B30, in experiment [3], the binding result was “no binding”.

B31: PDL1 C05 Fab-phage (Fab, V domains shown)
VH: EVQLLESGGGLVQPGGSLRLSCAASGFTFSSYAMSWVRQAPGKGLEWVSSIWRNGIVTVYDSVKGRFTISRDNSKNTLYLQMNSLRAEDTAVYYCAKSSAGFDYWGQGTLVTVSS
VL: DIQMTQSPSSLSASVGDRVTITCRASQSISSYLNWYQQKPGKAPKLLIYYASTLQSGVPSRFSGSGSGTDFTLTISSLQPEDFATYYCQQDNGYPSTFGQGTKVEIKR
With B31, the binding result in experiment [3] is “no binding”.

B32: PDL1 G10 Fab-phage (Fab, V domains shown)
VH: EVQLLESGGGLVQPGGSLRLSCAASGFTFSSYAMSWVRQAPGKGLEWVSSIGRQGLITVYDSVKGRFTISRDNSKNTLYLQMNSLRAEDTAVYYCAKSSAGFDYWGQGTLVTVSS
VL: DIQMTQSPSSLSASVGDRVTITCRASQSISSYLNWYQQKPGKAPKLLIYYASTLQSGVPSRFSGSGSGTDFTLTISSLQPEDFATYYCQQDNGYPSTFGQGTKVEIKR
In the case of B32, the binding result in experiment [3] is listed as “no binding”.

B33: PDL1 G09 Fab-phage (Fab, V domains shown)
VH: EVQLLESGGGLVQPGGSLRLSCAASGFTFSSYAMSWVRQAPGKGLEWVSEIVATGILTSYDSVKGRFTISRDNSKNTLYLQMNSLRAEDTAVYYCAKSSAGFDYWGQGTLVTVSS
VL: DIQMTQSPSSLSASVGDRVTITCRASQSISSYLNWYQQKPGKAPKLLIYYASTLQSGVPSRFSGSGSGTDFTLTISSLQPEDFATYYCQQDNGYPSTFGQGTKVEIKR
With B33, in experiment [3], the binding result is on record as “no binding”.
